In general, Km refers to the substrate concentration at which the rate is half of its maximum. Broadly, the kcat is the number of substrate molecules converted per active site and unit of time at saturation. As a reminder, the kcat/Km is the second-order rate constant that governs catalysis at low substrate concentration.

Our source for the Km, kcat and kcat/Km values is patent publication US6428997B1, “Aminopeptidase derived from Bacillus licheniformis and process for preparation of natural type proteins” (LG Chemical Ltd., priority 1997, dated 2002).

Substrate in data set [1]: CC(C)C[C@H](N)C(=O)Nc1ccc([N+](=O)[O-])cc1
The data set is described as follows: Kinetic parameters of Bacillus licheniformis aminopeptidase (Lineweaver-Burk). In kind it is biochemical. The settings on record: other: Tris-Cl pH 8.0, 37° C., 0.5 U enzyme, absorbance at 405 nm, Lineweaver-Burk plot. Here is the method: (§1) Aminopeptidase activities of this invention were measured by the method of Pfleiderer (Pfleiderer, Meth. Enzymol., 19, 514-521, 1970). Precisely, 1 U of enzyme activity defines the enzyme quantity changing 1 absorbance at 405 nm which is measured by the process adding aminopeptidase in 1 ml solution of […] Tris-Cl (pH 8.0) and 2 mM leucine-p-nitroanilide (Sigma, USA), incubating at 37° C. for 1 min, then adding 100 μl of 70% acetic acid to stop the reaction. At that time leucine-p-nitroanilide was dissolved in dimethylsulfoxide (DMSO) to make 100 mM solution.
(§2) In order to compare substrate specificity of aminopeptidase of this invention, 2 kinds of substrate were used. In detail, one was synthetic substrates of p-nitroanilide derivative and purchased from Sigma, USA and the other was oligopeptide such as methionyl oligopeptide of SEQ. ID. NO: 1 which have amino acid sequence similar to N-terminus of methionyl HGH and leucyl oligopeptide of SEQ. ID. NO: 2. The oligopeptides of this invention were synthesized.
(§3) Enzyme reaction of aminopeptidase was performed by the process described in Reference Examples. At that time p-nitroanilide derivative was used as synthetic substrate. Leucine p-nitroanilide was used as substrate to perform the reaction in concentration of 0.03125, 0.0625, 0.125, 0.25, 0.5, 1 mM and methionine p-nitroanilide in 0.125, 0.25, 0.5, 1 mM and aminopeptidase in 0.5 U respectively. Above reactions using leucine-p-nitroanilide proceeded for 2 min and methionine-p-nitroanilide for 40 min. Then 70% acetic acid was added to stop the reactions and absorbance at 405 nm was measured. The product concentration was measured by adopting absorbance constant ε405=9450M^−1 cm^−1.
(§4) In reaction condition mentioned above, initial velocity of enzyme reaction was measured with varying the substrate concentration. Lineweaver-Burk plot was used to determine Km value and Maximum reaction velocity of aminopeptidase from Bacillus licheniformis. In addition kcat and kcat/Km was determined by using Km value and maximum reaction velocity described above.

Substrate in data set [2]: CSCC[C@H](N)C(=O)Nc1ccc([N+](=O)[O-])cc1
The data set is described as above. The format is biochemical. The settings on record: other: Tris-Cl pH 8.0, 37° C., 0.5 U enzyme, absorbance at 405 nm, Lineweaver-Burk plot. As for the experimental part: as §1, §2, §3, §4

B1: Bacillus licheniformis aminopeptidase (Bacillus licheniformis DSM 13 = ATCC 14580) (protein)
chain: KFSKKFNENRAYQTIYHLSETIGPRVTGTAEEKKSAAFIASQMKKSNLKVSTQKFSIPDRLEGTLTVQGNNVPARPAAGSAPTAAEGLAAPLYDAGLGLPGDFTEEAKGKIAVILRGELTFYEKAKNAADAGASGVIIYNNVDSLVPLTPNLSGNKVDIPVVGVKKEDGEKLLSEQEAILKLKAHKNQTSQNVIGVRKAKGVKNPDIVYVTSHYDSVPYAPGANDNASGTSVVLELARILKTVPADKEIRFITFGAEEIGLLGSRHYVSTLSNQEVKRSVANFNLDMVATSWENASQLYINTPDGSANLVWQLSKAASLSLGKDVLFLHQGGSSDHVPFHEAGIDSANFIWREPGTGALEPWYHTPYDTIEHISKDRLKTAGQIAGTAVYNFTKKENRKPSYSSVAQ
Turning to B1, in data set [1], the Michaelis constant (Km) is 739 µM, the turnover number (kcat) worked out at 130 s⁻¹ and the kcat/Km is 176000 M⁻¹ s⁻¹. Moreover, in data set [2], the Km stood at 1004 µM, the turnover number (kcat) was 2.59 s⁻¹ and the kcat/Km amounted to 2580 M⁻¹ s⁻¹.
